This is an account of results in doi:10.1101/2020.01.05.895227.

In general, Kd refers to the free concentration of one partner at which half of the binding sites on the other are occupied at equilibrium, for simple one-to-one binding. Read a high Kd as weaker binding.

Assay in all cases: EMSA
For series [1], the target named is T1, Dnmt5 full-length (Cryptococcus neoformans, UniProt J9VI03 1-2377).
Another series concerns the target T2, MBP-Dnmt5(345-747) (Cryptococcus neoformans, UniProt J9VI03 345-747).
T2 sequence: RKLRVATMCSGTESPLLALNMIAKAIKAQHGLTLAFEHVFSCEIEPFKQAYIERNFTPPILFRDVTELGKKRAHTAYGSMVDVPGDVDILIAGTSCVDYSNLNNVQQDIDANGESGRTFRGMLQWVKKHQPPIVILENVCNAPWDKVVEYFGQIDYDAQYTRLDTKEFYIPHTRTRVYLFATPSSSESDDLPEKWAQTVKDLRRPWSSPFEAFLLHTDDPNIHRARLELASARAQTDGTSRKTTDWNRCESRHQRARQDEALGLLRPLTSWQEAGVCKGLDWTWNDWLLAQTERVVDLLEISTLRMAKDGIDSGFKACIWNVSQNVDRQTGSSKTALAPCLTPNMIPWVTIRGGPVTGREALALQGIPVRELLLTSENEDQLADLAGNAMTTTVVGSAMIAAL

Series [2] concerns the target T1, Dnmt5 full-length. The source holds these as a separate data set.
Series [3] addresses T3, MBP-Dnmt5(1-150, W87A, Y90A) (Cryptococcus neoformans, UniProt J9VI03 1-150, W87A;Y90A).
T3 sequence: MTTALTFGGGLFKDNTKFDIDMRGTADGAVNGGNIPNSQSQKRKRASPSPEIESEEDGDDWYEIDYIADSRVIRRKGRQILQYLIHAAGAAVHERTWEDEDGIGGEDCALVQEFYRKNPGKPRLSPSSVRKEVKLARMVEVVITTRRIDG

Positions count from the first letter of the chain named.

B1: Unmethylated 60 bp DNA (3 CG), Cy5 (dsDNA)
DNA 1: CATGGCCTAAGCCGGACTGAATGAGCAAGCTTCCGGAGAATTCTGCCGGACTGCAGATGC
DNA 2: GCATCTGCAGTCCGGCAGAATTCTCCGGAAGCTTGCTCATTCAGTCCGGCTTAGGCCATG
Turning to B1, the values for the Kd with Dnmt5 full-length [1] and with MBP-Dnmt5(345-747) were 20 ± 5 nM and 7 ± 3 nM, respectively.

B2: Unmethylated 60 bp DNA, one CG, Cy5 (dsDNA)
DNA 1: B1 DNA 1 with C13A, C47A
DNA 2: B1 DNA 2 with G14T, G48T
For B2, the binding signal in the series with Dnmt5 full-length [2] was 1 reference; abasic DNA binds 5-fold tighter.

B3: Hemimethylated 60 bp DNA (3 CG), Cy5 (dsDNA)
DNA 1: B1 DNA 1
DNA 2: B1 DNA 2
modifications: 5mC at strand 1 positions 13, 34, 47
Regarding B3, the binding result in series [3] is listed as “no binding”. The results for the Kd with Dnmt5 full-length [1] and with MBP-Dnmt5(345-747) were less than 1 nM and 6 ± 2 nM, respectively.
